Target: the molecule itself
Assay: […]

B1: Bacillus subtilis SepF (natural protein)
chain: MSMKNKLKNFFSMEDEEYEYEYIETERESHEEHEQKEKPAYNGNKPAGKQNVVSLQSVQKSSKVVLSEPRVYAEAQEIADHLKNRRAVVVNLQRIQHDQAKRIVDFLSGTVYAIGGDIQRIGSDIFLCTPDNVDVSGTISELISEDEHQRW
binding result: binds

From publication doi:10.1101/771139 (bioRxiv, 2020)
